Paper PMC10681739, “High-throughput data and modeling reveal insights into the mechanisms of cooperative DNA-binding by transcription factor proteins”

Biological target: T1, ETS1 (Homo sapiens, UniProt P14921)
T1 sequence: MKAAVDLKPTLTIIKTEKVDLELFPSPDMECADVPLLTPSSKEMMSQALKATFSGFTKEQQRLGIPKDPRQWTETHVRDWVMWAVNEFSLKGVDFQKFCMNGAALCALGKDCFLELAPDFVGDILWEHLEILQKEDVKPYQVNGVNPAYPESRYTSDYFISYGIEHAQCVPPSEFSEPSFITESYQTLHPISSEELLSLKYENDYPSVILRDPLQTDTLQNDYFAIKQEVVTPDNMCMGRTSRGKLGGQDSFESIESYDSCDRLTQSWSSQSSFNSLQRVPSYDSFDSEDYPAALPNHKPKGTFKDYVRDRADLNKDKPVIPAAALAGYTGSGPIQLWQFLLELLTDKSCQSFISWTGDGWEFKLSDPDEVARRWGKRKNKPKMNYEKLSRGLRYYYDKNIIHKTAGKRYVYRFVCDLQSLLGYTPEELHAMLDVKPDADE
Test: gcPBM; 1 nM ETS1
Details: tags: N-terminal GST (pDEST15), kept (PMC6008103); label: surface-attached array probe

B1: Table S2 C row 132 (dsDNA)
DNA 1: GGCCTGATAGCAATGGCCACAAACACAGCAAGCCAC
DNA 2: GTGGCTTGCTGTGTTTGTGGCCATTGCTATCAGGCC
B1 was tested, and the binding signal was 348 PBM fluorescence, median of replicate spots.

B2: Table S2 C row 114 (dsDNA)
DNA 1: CTCTTCCATGCAGGCTGTGGTTGCCTTCAAATACCG
DNA 2: CGGTATTTGAAGGCAACCACAGCCTGCATGGAAGAG
For B2, the binding signal was 357 PBM fluorescence, median of replicate spots.

B3: Table S2 C row 144 (dsDNA)
DNA 1: ACCGTCAATCTCGACACCGCGGAGCACAATGCGTGC
DNA 2: GCACGCATTGTGCTCCGCGGTGTCGAGATTGACGGT
In the case of B3, the binding signal is reported as 352 PBM fluorescence, median of replicate spots.

B4: Table S2 C row 95 (dsDNA)
DNA 1: TGTCTCATCAGCCAGGCCACAAACGCGATGTTTACA
DNA 2: TGTAAACATCGCGTTTGTGGCCTGGCTGATGAGACA
In the case of B4, the binding signal is reported as 338 PBM fluorescence, median of replicate spots.

B5: Table S2 C row 190 (dsDNA)
DNA 1: TAAGAGAAAGCGCAAACCGCACAAGACCAGTTCAAA
DNA 2: TTTGAACTGGTCTTGTGCGGTTTGCGCTTTCTCTTA
With B5 the binding signal was 359 PBM fluorescence, median of replicate spots.

B6: Table S2 C row 18 (dsDNA)
DNA 1: ACCCTCGAAGCTCTAACCACTGTGGGCTATTTTTGC
DNA 2: GCAAAAATAGCCCACAGTGGTTAGAGCTTCGAGGGT
For B6, the binding signal was 356 PBM fluorescence, median of replicate spots.

B7: Table S2 C row 66 (dsDNA)
DNA 1: TCCTGAGTGCTGGGAACCGCAGCGCCACATGCACCC
DNA 2: GGGTGCATGTGGCGCTGCGGTTCCCAGCACTCAGGA
With B7 the binding signal was 341 PBM fluorescence, median of replicate spots.

B8: Table S2 C row 45 (dsDNA)
DNA 1: GCGGGGTTGGGAGGCTGCGGGAGTTTGCGTCCCCTC
DNA 2: GAGGGGACGCAAACTCCCGCAGCCTCCCAACCCCGC
With B8 the binding signal was 339 PBM fluorescence, median of replicate spots.

B9: Table S2 C row 19 (dsDNA)
DNA 1: GACAAATCAAATGCCACCGCAGAGTTTACTCGAGTT
DNA 2: AACTCGAGTAAACTCTGCGGTGGCATTTGATTTGTC
For B9, the binding signal was 343 PBM fluorescence, median of replicate spots.

B10: Table S2 C row 194 (dsDNA)
DNA 1: TCGGGAACGTGGGGCTGCGGCCGCCCATGGTGCCCC
DNA 2: GGGGCACCATGGGCGGCCGCAGCCCCACGTTCCCGA
With B10 the binding signal was 335 PBM fluorescence, median of replicate spots.

B11: Table S2 C row 94 (dsDNA)
DNA 1: CCCAAGCCCGCGGGCTGCGGGCGCTGATTGGGCGGC
DNA 2: GCCGCCCAATCAGCGCCCGCAGCCCGCGGGCTTGGG
With B11 the binding signal was 346 PBM fluorescence, median of replicate spots.

B12: Table S2 B row 1920 (dsDNA)
DNA 1: ACATTCTTCCGGTTGGACCTCCGCGATCAGCGCTGT
DNA 2: ACAGCGCTGATCGCGGAGGTCCAACCGGAAGAATGT
With B12 the binding signal was 16500 PBM fluorescence, median of replicate spots.

B13: Table S2 C row 109 (dsDNA)
DNA 1: CAAGCCCAAGAACGCTGTGGTTTTTGCAGACTCATA
DNA 2: TATGAGTCTGCAAAAACCACAGCGTTCTTGGGCTTG
B13 was tested, and the binding signal was 353 PBM fluorescence, median of replicate spots.

B14: Table S2 C row 86 (dsDNA)
DNA 1: CGTCACTTCTGGAGCTGCGGTCGGGATCTGGGAGGA
DNA 2: TCCTCCCAGATCCCGACCGCAGCTCCAGAAGTGACG
With B14 the binding signal was 360 PBM fluorescence, median of replicate spots.

B15: Table S2 C row 135 (dsDNA)
DNA 1: GGGTCCCGGGGACCCTGCGGGCTCCGAGTAGTCGTA
DNA 2: TACGACTACTCGGAGCCCGCAGGGTCCCCGGGACCC
B15 was tested, and the binding signal was 332 PBM fluorescence, median of replicate spots.

B16: Table S2 C row 29 (dsDNA)
DNA 1: TGGCCATGGCCTATGACCGCTATGTGGCCATCTGCT
DNA 2: AGCAGATGGCCACATAGCGGTCATAGGCCATGGCCA
With B16 the binding signal was 340 PBM fluorescence, median of replicate spots.

B17: Table S2 C row 17 (dsDNA)
DNA 1: GGGGTGTACACTAGCTGCGGTCTGATTTAGCCCTTT
DNA 2: AAAGGGCTAAATCAGACCGCAGCTAGTGTACACCCC
With B17 the binding signal was 351 PBM fluorescence, median of replicate spots.

B18: Table S2 C row 165 (dsDNA)
DNA 1: ATCAGCGTGGCTGCTGCCGCAGAACAAGCCACGCTT
DNA 2: AAGCGTGGCTTGTTCTGCGGCAGCAGCCACGCTGAT
In the case of B18, the binding signal is reported as 345 PBM fluorescence, median of replicate spots.

B19: Table S2 C row 90 (dsDNA)
DNA 1: ACTGAAAATCTGCCTTGTGGCTGCTTCTGGTACACA
DNA 2: TGTGTACCAGAAGCAGCCACAAGGCAGATTTTCAGT
B19 was tested, and the binding signal was 355 PBM fluorescence, median of replicate spots.

B20: Table S2 C row 185 (dsDNA)
DNA 1: GCAGAAATATGCTGAACCACAACTGAAGGTGGCTGA
DNA 2: TCAGCCACCTTCAGTTGTGGTTCAGCATATTTCTGC
With B20 the binding signal was 345 PBM fluorescence, median of replicate spots.

B21: Table S2 C row 189 (dsDNA)
DNA 1: CCCTGGGGTCCCTTTGCCGCAGTTCCACATCTGCAG
DNA 2: CTGCAGATGTGGAACTGCGGCAAAGGGACCCCAGGG
B21 was tested, and the binding signal was 346 PBM fluorescence, median of replicate spots.

B22: Table S2 C row 127 (dsDNA)
DNA 1: CCGCCCTCGGTCCCCACCGCGGAGGACTCTCTCAAG
DNA 2: CTTGAGAGAGTCCTCCGCGGTGGGGACCGAGGGCGG
In the case of B22, the binding signal is reported as 352 PBM fluorescence, median of replicate spots.

B23: Table S2 C row 56 (dsDNA)
DNA 1: TGTCTATCGATTAAAACCACTGGTAAGAGCCATTGA
DNA 2: TCAATGGCTCTTACCAGTGGTTTTAATCGATAGACA
With B23 the binding signal was 359 PBM fluorescence, median of replicate spots.

B24: Table S2 C row 164 (dsDNA)
DNA 1: GAGCGGAGACAGAACACCGCACACCCAGCGTCCCAA
DNA 2: TTGGGACGCTGGGTGTGCGGTGTTCTGTCTCCGCTC
With B24 the binding signal was 352 PBM fluorescence, median of replicate spots.

B25: Table S2 C row 145 (dsDNA)
DNA 1: TGTGGCTGCCCTCAGACCACAAACCACCAGCCCTAT
DNA 2: ATAGGGCTGGTGGTTTGTGGTCTGAGGGCAGCCACA
B25 was tested, and the binding signal was 352 PBM fluorescence, median of replicate spots.

B26: Table S2 C row 171 (dsDNA)
DNA 1: GACTGGTGGATCACTTGAGGTCAGTTTGAGACCAGC
DNA 2: GCTGGTCTCAAACTGACCTCAAGTGATCCACCAGTC
For B26, the binding signal was 359 PBM fluorescence, median of replicate spots.

B27: Table S2 C row 110 (dsDNA)
DNA 1: GGATTCAACATTCCTTGTGGGCTGCTGGCCCCAGAC
DNA 2: GTCTGGGGCCAGCAGCCCACAAGGAATGTTGAATCC
In the case of B27, the binding signal is reported as 359 PBM fluorescence, median of replicate spots.

B28: Table S2 C row 169 (dsDNA)
DNA 1: TGGGCATGCGCGGCGCGCGGTTGGCACTGGCTGCGA
DNA 2: TCGCAGCCAGTGCCAACCGCGCGCCGCGCATGCCCA
B28 was tested, and the binding signal was 336 PBM fluorescence, median of replicate spots.

B29: Table S2 C row 9 (dsDNA)
DNA 1: CATGTGAGCGACTGGGCCGCAGCCATCAGCCTCCTG
DNA 2: CAGGAGGCTGATGGCTGCGGCCCAGTCGCTCACATG
B29 was tested, and the binding signal was 350 PBM fluorescence, median of replicate spots.

B30: Table S2 B row 649 (dsDNA)
DNA 1: TTATTTCCGGTGTTGATCTTTTTATTGGTACCAGGC
DNA 2: GCCTGGTACCAATAAAAAGATCAACACCGGAAATAA
In the case of B30, the binding signal is reported as 43000 PBM fluorescence, median of replicate spots.

B31: Table S2 C row 193 (dsDNA)
DNA 1: GCTCCTAGATGGCTCTGTGGGCAGGTGCTGGCCAAG
DNA 2: CTTGGCCAGCACCTGCCCACAGAGCCATCTAGGAGC
For B31, the binding signal was 347 PBM fluorescence, median of replicate spots.

B32: Table S2 C row 104 (dsDNA)
DNA 1: TCTCCCAGCGTCTGATGTGGCTTCGGTGTCAGACAT
DNA 2: ATGTCTGACACCGAAGCCACATCAGACGCTGGGAGA
B32 was tested, and the binding signal was 352 PBM fluorescence, median of replicate spots.

B33: Table S2 C row 142 (dsDNA)
DNA 1: CCTAAGAGTAAGCTAACCACAGGGATTCTTTTGTAG
DNA 2: CTACAAAAGAATCCCTGTGGTTAGCTTACTCTTAGG
For B33, the binding signal was 351 PBM fluorescence, median of replicate spots.

B34: Table S2 C row 83 (dsDNA)
DNA 1: AGAACTTAAGATCTCTGTGGCTTGTGTGTGTGTGTA
DNA 2: TACACACACACACAAGCCACAGAGATCTTAAGTTCT
With B34 the binding signal was 361 PBM fluorescence, median of replicate spots.

B35: Table S2 B row 703 (dsDNA)
DNA 1: GCCGGGCACTTCCTGTGGAGGCCGAAGCGGGTGCGC
DNA 2: GCGCACCCGCTTCGGCCTCCACAGGAAGTGCCCGGC
With B35 the binding signal was 17200 PBM fluorescence, median of replicate spots.

B36: Table S2 C row 7 (dsDNA)
DNA 1: AAATAGCGCAGGTCAACCACAGACCCCAGCACTGCA
DNA 2: TGCAGTGCTGGGGTCTGTGGTTGACCTGCGCTATTT
With B36 the binding signal was 355 PBM fluorescence, median of replicate spots.

B37: Table S2 C row 188 (dsDNA)
DNA 1: GGAGATAGCCTAGGCTGTGGTTTTTCAGAGAAACCT
DNA 2: AGGTTTCTCTGAAAAACCACAGCCTAGGCTATCTCC
In the case of B37, the binding signal is reported as 350 PBM fluorescence, median of replicate spots.

B38: Table S2 C row 111 (dsDNA)
DNA 1: CCAGCTGTACTGAGTTGAGGTTTTTCTGACCCTCAG
DNA 2: CTGAGGGTCAGAAAAACCTCAACTCAGTACAGCTGG
For B38, the binding signal was 336 PBM fluorescence, median of replicate spots.

B39: Table S2 C row 11 (dsDNA)
DNA 1: AGGTCCTCTGCATTCTGTGGTCACAAACCCAGAGCC
DNA 2: GGCTCTGGGTTTGTGACCACAGAATGCAGAGGACCT
With B39 the binding signal was 347 PBM fluorescence, median of replicate spots.

B40: Table S2 C row 30 (dsDNA)
DNA 1: TGAAATTTTTCTTTTTGTGGTCAGTAATCCCAAAAA
DNA 2: TTTTTGGGATTACTGACCACAAAAAGAAAAATTTCA
With B40 the binding signal was 339 PBM fluorescence, median of replicate spots.

B41: Table S2 C row 147 (dsDNA)
DNA 1: GGCCTCTGAGGAGCAGCCGCAGGAGGAGGAGGAGGT
DNA 2: ACCTCCTCCTCCTCCTGCGGCTGCTCCTCAGAGGCC
With B41 the binding signal was 353 PBM fluorescence, median of replicate spots.

B42: Table S2 B row 1682 (dsDNA)
DNA 1: CTTGTTCTATTTCCTGTTTGTGCTGAGTGACTGTCT
DNA 2: AGACAGTCACTCAGCACAAACAGGAAATAGAACAAG
B42 was tested, and the binding signal was 15900 PBM fluorescence, median of replicate spots.
